Targets include BRD4 (UniProt O60885); ABL (UniProt P00519); BTK (UniProt Q06187).

BTK, sequence (Q06187 whole entry): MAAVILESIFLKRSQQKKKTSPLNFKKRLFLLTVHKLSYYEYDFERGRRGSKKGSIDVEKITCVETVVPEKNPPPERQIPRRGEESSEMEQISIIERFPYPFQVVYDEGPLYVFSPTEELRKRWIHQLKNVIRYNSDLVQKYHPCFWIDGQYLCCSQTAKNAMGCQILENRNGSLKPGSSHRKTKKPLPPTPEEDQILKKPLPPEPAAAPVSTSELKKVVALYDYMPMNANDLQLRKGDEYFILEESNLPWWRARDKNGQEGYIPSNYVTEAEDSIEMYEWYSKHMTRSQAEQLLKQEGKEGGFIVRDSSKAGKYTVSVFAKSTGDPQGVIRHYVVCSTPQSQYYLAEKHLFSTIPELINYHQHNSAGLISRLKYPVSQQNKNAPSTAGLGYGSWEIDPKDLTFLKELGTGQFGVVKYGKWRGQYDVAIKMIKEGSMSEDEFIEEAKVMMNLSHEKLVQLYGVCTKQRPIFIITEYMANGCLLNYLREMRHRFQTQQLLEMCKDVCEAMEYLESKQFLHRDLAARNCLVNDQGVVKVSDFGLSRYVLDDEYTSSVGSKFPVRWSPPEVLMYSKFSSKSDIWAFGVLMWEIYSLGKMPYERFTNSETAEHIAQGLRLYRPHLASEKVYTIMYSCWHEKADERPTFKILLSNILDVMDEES
ABL, sequence (P00519 whole entry): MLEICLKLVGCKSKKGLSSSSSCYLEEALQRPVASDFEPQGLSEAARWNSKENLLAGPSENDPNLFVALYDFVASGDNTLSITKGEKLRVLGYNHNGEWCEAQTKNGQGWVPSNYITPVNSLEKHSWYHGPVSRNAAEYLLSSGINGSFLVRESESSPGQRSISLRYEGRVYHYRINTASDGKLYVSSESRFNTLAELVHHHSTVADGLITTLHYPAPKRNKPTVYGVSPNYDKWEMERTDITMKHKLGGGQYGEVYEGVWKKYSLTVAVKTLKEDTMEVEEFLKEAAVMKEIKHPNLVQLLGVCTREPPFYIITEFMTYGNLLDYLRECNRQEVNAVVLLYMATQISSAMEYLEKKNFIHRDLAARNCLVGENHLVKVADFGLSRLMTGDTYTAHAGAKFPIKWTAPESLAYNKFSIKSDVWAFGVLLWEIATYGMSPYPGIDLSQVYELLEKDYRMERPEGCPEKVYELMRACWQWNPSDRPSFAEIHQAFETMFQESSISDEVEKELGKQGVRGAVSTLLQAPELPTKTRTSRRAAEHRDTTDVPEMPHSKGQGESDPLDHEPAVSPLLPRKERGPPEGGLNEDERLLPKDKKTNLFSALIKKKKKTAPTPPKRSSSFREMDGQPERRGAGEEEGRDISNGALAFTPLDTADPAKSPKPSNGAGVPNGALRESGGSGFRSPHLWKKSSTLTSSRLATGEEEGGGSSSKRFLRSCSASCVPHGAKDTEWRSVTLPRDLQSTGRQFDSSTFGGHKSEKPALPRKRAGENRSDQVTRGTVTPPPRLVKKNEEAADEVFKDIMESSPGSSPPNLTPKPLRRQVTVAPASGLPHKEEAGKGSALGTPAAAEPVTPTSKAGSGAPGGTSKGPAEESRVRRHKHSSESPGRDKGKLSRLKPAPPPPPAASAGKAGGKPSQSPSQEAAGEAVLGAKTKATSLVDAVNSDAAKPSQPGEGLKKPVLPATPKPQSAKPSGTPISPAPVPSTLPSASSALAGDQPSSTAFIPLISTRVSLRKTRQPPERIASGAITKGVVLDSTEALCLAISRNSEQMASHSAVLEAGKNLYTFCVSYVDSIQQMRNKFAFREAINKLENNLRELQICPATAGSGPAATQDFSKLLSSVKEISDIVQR

As to PKC, in the series with BRD4, the “phosphorylation of BRD4 by PKC in vitro, with PHICS4” value was “BRD4 phosphorylation was detected in the presence of PHICS4” and the “phosphorylation of BRD4 by PKC in vitro, with the chimeric molecule made from (R)-JQ1” value is “absence of phosphorylation when a chimeric molecule generated from the inactive enantiomer of (S)-JQ1 [i.e., (R)-JQ1] was used”. Moreover, in the series with ABL, the “phosphorylation of ABL by PKC in vitro, with PHICS5” value is listed as “An ABL-targeting PHICS5 formed using dihydropyrazole core also induced phosphorylation of ABL, compare to DMSO or activator VS1012 treated controls” and the “phosphorylation of ABL by PKC in vitro, with VS558” value is “bifunctional molecule VS558 based on a known inhibitor dasatinib, that binds to a different pocket of ABL kinase [16], also induced its phosphorylation by PKC in vitro”. In addition, in the series with BTK, the “phosphorylation of BTK by PKC in vitro, with PHICS6 (PKC-motif antibody)” value is reported as “the degree of phosphorylation was higher in the presence of PHICS6”; the “phosphorylation of BTK by PKC in vitro, with the inactive analog iPHICS6” value was “the inactive PHICS analogs lowered phosphorylation induction”; the “phosphorylation of BTK by PKC in vitro, without PHICS (PKC-motif antibody)” value is listed as “some phosphorylation of BTK by PKC was observed in the absence of PHICS (quantified using PKC-motif antibody)”.

Source of the values: patent publication US20240024490.
